Assay results published in article PMC8980893, “A fusion of the Bacteroides fragilis ferrous iron import proteins reveals a role for FeoA in stabilizing GTP-bound FeoB” (The Journal of Biological Chemistry, 2022).
Values belong to the compound of their own block, whether it stands above or below them.

What was measured:
[1] = molecular target: soluble N-terminal domain of Bacteroides fragilis FeoAB (FeoA fused to the N-terminal GTP-binding domain of FeoB) (Bacteroides fragilis); experiment: SEC; 120-ml Superdex 200, 4 °C, 25 mM Tris pH 7.5, 300 mM NaCl, 2% glycerol, 1 mM TCEP; after IMAC
[2] = molecular target: NFeoB region (G-protein domain and GDI domain) of Bacteroides fragilis FeoAB (Bacteroides fragilis)
BfNFeoAB = molecular target: T1, BfNFeoAB (Bacteroides fragilis, UniProt Q5LFM5); experiment: hydrogen-deuterium exchange mass spectrometry; assay type: binding; conditions: 25 mM Tris pD 7.5, 300 mM NaCl, 2% glycerol, 1 mM TCEP, 25 °C
T1 construct: gene BF9343_1287; N-terminal soluble domain of natural FeoAB fusion (FeoA, linker, G-protein and GDI domains), residues 1-438, without transmembrane region; from E. coli C43(DE3) deltaacrB; monomer, about 53 kDa; PDB 7R7B covers FeoA residues 1-74 only
T1 sequence (Q5LFM5 1-438): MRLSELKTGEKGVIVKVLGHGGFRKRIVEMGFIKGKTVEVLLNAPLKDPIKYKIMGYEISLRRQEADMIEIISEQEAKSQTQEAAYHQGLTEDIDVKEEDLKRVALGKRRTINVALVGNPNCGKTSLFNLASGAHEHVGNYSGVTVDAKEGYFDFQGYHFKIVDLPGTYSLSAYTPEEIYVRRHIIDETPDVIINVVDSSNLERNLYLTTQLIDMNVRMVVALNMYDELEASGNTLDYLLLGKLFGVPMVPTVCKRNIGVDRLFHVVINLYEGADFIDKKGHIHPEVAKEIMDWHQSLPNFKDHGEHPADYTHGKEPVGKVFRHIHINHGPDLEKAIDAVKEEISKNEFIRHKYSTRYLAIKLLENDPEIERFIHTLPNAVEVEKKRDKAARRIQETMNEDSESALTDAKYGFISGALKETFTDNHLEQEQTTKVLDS

stoichiometry N [1]: 3
Compound: soluble N-terminal domain of Bacteroides fragilis FeoAB (FeoA fused to the N-terminal GTP-binding domain of FeoB) (domain or fragment)

kcat of GTP hydrolysis by BfNFeoAB (FeoA present on the chain), 1D-31P NMR, 37 °C [2]: 0.00071 s⁻¹ | kcat of GTP hydrolysis by BfNFeoB-L (FeoA deleted), malachite green assay, 37 °C [2]: 0.037 s⁻¹
Compound: FeoA domain of Bacteroides fragilis FeoAB (domain or fragment)

Compound: Nc1nc2c(ncn2[C@@H]2O[C@H](COP(=O)(O)OP(=O)(O)NP(=O)(O)O)[C@@H](O)[C@H]2O)c(=O)[nH]1 [GMP-PNP]
hydrogen-deuterium exchange mass spectrometry (BfNFeoAB; 5 mM GMP-PNP, nonhydrolyzable GTP analog): Binding of the nonhydrolyzable GTP analog with GMP-PNP elicits increases in protein protection

Compound: Nc1nc2c(ncn2[C@@H]2O[C@H](COP(=O)(O)OP(=O)(O)O)[C@@H](O)[C@H]2O)c(=O)[nH]1 [GDP]
hydrogen-deuterium exchange mass spectrometry (BfNFeoAB; 5 mM GDP): binding of GDP elicits a mixture of protein protection and deprotection
